Measured values reported in PMC2628593 (Molecular cell, 2008).

Molecular target: the molecule itself
Test: SEC + other: dynamic light scattering

B1: Skap55 (Src-kinase-associated phosphoprotein of 55 kDa) (natural protein, UniProt Q86WV1 1-359, looked up)
chain: MQAAALPEEIRWLLEDAEEFLAEGLRNENLSAVARDHRDHILRGFQQIKARYYWDFQPQGGDIGQDSSDDNHSGTLGLSLTSDAPFLSDYQDEGMEDIVKGAQELDNVIKQGYLEKKSKDHSFFGSEWQKRWCVVSRGLFYYYANEKSKQPKGTFLIKGYGVRMAPHLRRDSKKESCFELTSQDRRSYEFTATSPAEARDWVDQISFLLKDLSSLTIPYEEDEEEEEKEETYDDIDGFDSPSCGSQCRPTILPGSVGIKEPTEEKEEEDIYEVLPDEEHDLEEDESGTRRKGVDYASYYQGLWDCHGDQPDELSFQRGDLIRILSKEYNMYGWWVGELNSLVGIVPKEYLTTAFEVEER
  stoichiometry N: 2
